In publication PMC9604365 (2022):
Blank lines part the entries; values can stand above or below the binder they belong to.

Columns and labels:
Assay in all cases: ELISA
integrin αvβ5 = biological target: T1, integrin αvβ5 (Homo sapiens, UniProt P06756)
T1 chain 1: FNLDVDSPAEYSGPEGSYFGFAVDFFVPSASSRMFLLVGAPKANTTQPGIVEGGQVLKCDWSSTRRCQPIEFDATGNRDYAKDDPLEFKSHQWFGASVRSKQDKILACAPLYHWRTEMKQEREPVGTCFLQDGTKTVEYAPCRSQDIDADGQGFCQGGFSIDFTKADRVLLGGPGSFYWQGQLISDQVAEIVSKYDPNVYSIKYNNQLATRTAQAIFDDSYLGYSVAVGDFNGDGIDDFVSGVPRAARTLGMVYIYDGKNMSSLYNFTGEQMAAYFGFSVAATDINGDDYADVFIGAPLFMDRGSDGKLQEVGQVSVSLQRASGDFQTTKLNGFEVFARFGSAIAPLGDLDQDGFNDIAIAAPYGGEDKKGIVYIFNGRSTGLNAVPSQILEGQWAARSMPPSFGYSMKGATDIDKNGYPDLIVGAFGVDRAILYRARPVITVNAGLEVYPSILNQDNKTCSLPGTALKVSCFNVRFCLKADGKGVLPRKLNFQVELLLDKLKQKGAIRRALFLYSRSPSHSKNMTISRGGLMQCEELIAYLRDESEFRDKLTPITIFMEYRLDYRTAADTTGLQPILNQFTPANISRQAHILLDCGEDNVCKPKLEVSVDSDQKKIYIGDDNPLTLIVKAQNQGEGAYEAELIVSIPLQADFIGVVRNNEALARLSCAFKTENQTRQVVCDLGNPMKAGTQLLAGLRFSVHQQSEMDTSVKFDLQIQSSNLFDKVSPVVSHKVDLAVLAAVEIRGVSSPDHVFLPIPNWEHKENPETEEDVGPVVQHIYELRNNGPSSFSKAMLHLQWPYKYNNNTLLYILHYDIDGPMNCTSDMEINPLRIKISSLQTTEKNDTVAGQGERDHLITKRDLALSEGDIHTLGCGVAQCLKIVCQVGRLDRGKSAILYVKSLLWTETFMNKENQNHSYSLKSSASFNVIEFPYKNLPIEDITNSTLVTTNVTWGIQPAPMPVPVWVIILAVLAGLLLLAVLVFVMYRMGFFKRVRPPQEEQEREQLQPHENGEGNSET
T1 chain 2: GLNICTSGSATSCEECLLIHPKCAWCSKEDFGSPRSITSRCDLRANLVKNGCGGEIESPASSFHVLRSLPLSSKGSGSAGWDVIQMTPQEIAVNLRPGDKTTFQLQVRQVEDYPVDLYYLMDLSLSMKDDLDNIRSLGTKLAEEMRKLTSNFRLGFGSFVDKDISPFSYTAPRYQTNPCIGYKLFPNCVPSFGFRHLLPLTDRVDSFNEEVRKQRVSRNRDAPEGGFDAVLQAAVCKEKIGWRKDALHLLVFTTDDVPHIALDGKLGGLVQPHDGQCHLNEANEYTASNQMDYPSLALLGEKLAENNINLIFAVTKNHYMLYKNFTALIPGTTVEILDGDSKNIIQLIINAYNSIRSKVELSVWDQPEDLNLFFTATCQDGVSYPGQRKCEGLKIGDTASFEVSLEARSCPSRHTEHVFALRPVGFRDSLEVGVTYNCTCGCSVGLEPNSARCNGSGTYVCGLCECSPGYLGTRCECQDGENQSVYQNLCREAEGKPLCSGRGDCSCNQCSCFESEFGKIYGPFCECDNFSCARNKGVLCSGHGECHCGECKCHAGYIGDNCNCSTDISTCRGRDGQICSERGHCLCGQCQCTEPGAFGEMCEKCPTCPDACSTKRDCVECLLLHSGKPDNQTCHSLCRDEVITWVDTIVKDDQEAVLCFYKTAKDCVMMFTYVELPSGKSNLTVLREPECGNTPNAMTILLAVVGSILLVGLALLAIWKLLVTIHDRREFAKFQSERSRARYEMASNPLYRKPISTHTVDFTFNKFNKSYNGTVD

integrin αvβ3 = biological target: T2, integrin αvβ3 (Homo sapiens, UniProt P06756)
T2 chain 1: T1 chain 1
T2 chain 2: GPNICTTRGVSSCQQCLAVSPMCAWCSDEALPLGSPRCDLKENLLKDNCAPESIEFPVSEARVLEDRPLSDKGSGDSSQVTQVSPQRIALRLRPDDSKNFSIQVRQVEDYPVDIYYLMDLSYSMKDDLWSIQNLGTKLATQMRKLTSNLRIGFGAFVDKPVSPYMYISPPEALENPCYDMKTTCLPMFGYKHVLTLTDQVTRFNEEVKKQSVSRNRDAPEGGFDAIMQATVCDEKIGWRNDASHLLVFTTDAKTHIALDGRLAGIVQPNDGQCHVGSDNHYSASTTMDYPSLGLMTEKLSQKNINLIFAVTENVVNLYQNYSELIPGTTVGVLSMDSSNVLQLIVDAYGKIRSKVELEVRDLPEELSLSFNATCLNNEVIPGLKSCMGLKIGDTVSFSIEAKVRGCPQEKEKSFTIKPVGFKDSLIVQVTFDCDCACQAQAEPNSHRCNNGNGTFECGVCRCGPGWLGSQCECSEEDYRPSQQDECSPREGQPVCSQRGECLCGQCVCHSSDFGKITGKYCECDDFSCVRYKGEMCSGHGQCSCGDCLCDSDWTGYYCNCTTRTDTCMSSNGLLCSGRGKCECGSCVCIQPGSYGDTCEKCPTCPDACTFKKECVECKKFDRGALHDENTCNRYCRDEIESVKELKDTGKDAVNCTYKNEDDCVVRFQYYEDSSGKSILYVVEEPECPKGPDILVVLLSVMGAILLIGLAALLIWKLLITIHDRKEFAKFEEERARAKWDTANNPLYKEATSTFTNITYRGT

DR5 = DR5 (Homo sapiens, UniProt O14763)

- Kd (integrin αvβ5): 96.5 nM
- Kd (integrin αvβ3): 1.89 nM
- Kd (DR5): 1.66 nM
B1: DR5-B-iRGD 114-281 (protein)
chain: VRERGPQRVAAHITGTRGRSNTLSSPNSKNEKALGRKINSWESSRSGHSFLSNLHLRNGELVIHEKGFYYIYSQTNFKFREEIKENTKNDKQMVQYIYKYTSYPDPILLMKSARNSCWSKDAEYGLYSIYQGGIFELKENDRIFVSVTNERLLDMHHEASFFGAFLVG

- Kd (DR5): 1.46 nM
B2: DR5-B 114-281 (protein)
chain: B1 chain
